Laboratory results: patent US20200308591A1, “PROMOTER REGION ANALYSIS METHODS AND CELLS FOR PRACTICING SAME” (Eurofins DiscoverX Corporation, priority 2019, published 2020)

T1: RANK (Receptor activator of nuclear factor κ B receptor) co-expressed in U2OS NFκB pathway reporter cells (UniProt Q9Y6Q6)
T1 sequence (looked up): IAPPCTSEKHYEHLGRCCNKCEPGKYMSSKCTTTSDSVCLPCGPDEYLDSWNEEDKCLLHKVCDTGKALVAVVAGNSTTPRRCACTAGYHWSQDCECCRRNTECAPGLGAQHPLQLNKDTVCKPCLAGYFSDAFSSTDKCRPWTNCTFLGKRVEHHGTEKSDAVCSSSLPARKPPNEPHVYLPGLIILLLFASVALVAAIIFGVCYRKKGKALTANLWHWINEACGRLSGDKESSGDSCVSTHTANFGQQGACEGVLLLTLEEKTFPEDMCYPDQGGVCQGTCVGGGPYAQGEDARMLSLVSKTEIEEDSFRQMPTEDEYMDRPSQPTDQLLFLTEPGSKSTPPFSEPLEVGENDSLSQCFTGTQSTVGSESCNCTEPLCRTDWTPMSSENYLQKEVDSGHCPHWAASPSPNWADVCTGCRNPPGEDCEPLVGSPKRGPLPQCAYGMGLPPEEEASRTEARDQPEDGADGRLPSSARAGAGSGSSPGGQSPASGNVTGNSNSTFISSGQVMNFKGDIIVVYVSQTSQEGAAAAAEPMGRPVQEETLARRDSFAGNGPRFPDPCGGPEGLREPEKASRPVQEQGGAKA

T2: RANK (Receptor activator of nuclear factor κ B receptor) (Homo sapiens, UniProt Q9Y6Q6)
T2 construct: expressed in transfected cells; host or cells: U2OS
T2 sequence (Q9Y6Q6 30-616): T1 sequence (looked up)

B1: soluble RANKL (ligand, UniProt O14788 143-317, looked up)
chain: EKAMVDGSWLDLAKRSKLEAQPFAHLTINATDIPSGSHKVSLSSWYHDRGWAKISNMTFSNGKLIVNQDGFYYLYANICFRHHETSGDLATEYLQLMVYVTKTSIKIPSSHTLMKGGSTKYWSGNSEFHFYSINVGGFFKLRSGEEISIEVSNPSLLDPDQDATYFGAFKVRDID

Key:
CD40 receptor [1] = molecular target: T3, CD40 receptor (Homo sapiens, UniProt P25942); test: NFkB EFC reporter assay cells, CD40L stimulation (FIG. 7); assay type: cell-based; details: 3h or 6h incubation
T3 construct: The cells also endogenously express CD40 (receptor); endogenous in cells; host or cells: U2OS
T3 sequence (P25942 21-277): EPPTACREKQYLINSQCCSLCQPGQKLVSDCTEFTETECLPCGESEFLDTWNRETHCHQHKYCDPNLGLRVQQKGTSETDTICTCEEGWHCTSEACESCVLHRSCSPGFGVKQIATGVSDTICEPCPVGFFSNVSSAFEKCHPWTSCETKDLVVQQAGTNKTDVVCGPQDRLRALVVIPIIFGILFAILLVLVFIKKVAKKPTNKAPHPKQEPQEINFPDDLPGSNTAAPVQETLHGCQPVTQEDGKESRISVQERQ
Description: Often multiple ligands acting through different cellular receptors will stimulate the same signaling pathway allowing the same EFC reporter assay to be used to study the function and inhibition of function for these multiple ligands. For example, in FIGS. 4-6 stimulation and inhibition of TNFα-stimulated NFkB signaling and gene expression was studied.

CD40 receptor [2] = molecular target: T3, CD40 receptor; test: EFC-based versus Luciferase NFκB transcriptional reporter assay, CD40L; assay type: cell-based; details: 6h stimulation
Protocol: FIG. 13. […] U2OS cells stably transfected with a plasmid encoding an NFκB transcriptional response element driving expression of either the EFC reporter (left panel) or (Firefly) Luciferase-PEST were stimulated with a range of concentrations of CD40L for 6h followed by cell lysis, addition of excess EA, incubation for 1h and determination of luminescence (RLU). The luminescence detected indicates the extent of induction of the respective carrier protein by CD40L.
The EFC-based NFκB transcriptional reporter assay was over 35 times more sensitive to CD40L than the luciferase-based assay. Note that the reporter plasmids used to make the stable cell lines had identical elements with the only significant difference being the identity of the carrier protein. Specifically, both plasmids had the same promoter elements and both had the same protein destabilizing element (PEST sequence).

[3] = system: NFκB (nuclear factor NF-kappa-B p100 subunit) pathway; test: U2OS NFκB pathway reporter cell line (Example 7); assay type: cell-based; details: 5000 cells/well; 360 min at 37 °C
Description: (§1) A reporter cell line was engineered to express an Enzyme Donor (ED) tagged carrier protein controlled by a pathway-inducible transcriptional response element. Pathway activation results in induced expressions of the ED-tagged protein. Addition of exogenous Enzyme Acceptor (EA), and buffer, lyses the cell and forces complementation of the ED and EA enzyme fragments.
In this example, the cell line is an NFκB (nuclear factor NF-kappa-B p100 subunit) pathway reporter cell line. The cells are U2OS cells that include a nucleic acid encoding a β-galactosidase donor fragment (ED) having the amino acid sequence […] (SEQ ID NO:30) operably coupled to a promoter region comprising an NFκB response element.
(§2) Cells were plated in a 96-well plate and incubated at 37° C. and 5% CO2 to allow the cells to attach and grow. Cells were then stimulated with a control agonist (here, CD40L), using the assay conditions described below. Following stimulation, signal was detected using the PathHunter® ProLabel®/ProLink™ Detection Kit (Eurofins DiscoverX Corporation) according to the recommended protocol.

CD40 receptor [4] = molecular target: T3, CD40 receptor; test: U2OS NF-κB pathway reporter assay with carrier protein (Example 12); assay type: cell-based; details: 5000 cells/well; 6 h at 37 °C
Description: as §1, with “a carrier protein-Enzyme” for “an Enzyme”, “carrier protein-ED-tagged” for “ED-tagged”
In this example, the cell line is a NFκB (nuclear factor NF-kappa-B p100 subunit) pathway reporter cell line. The cells are U2OS cells that include a nucleic acid encoding a reporter fragment and β-galactosidase donor fragment (ED) having the amino acid sequence […] (SEQ ID NO:30) operably coupled to a promoter region comprising a NFκB response element. The cells also endogenously express CD40 (receptor).
as §2

[5] = molecular target: T1, RANK (Receptor activator of nuclear factor κ B receptor) co-expressed in U2OS NFκB pathway reporter cells; test: cell-based or functional assay
[6] = molecular target: T2, RANK (Receptor activator of nuclear factor κ B receptor); test: U2OS RANK-NFκB pathway reporter assay (Example 13); assay type: cell-based; details: 5000 cells/well; 16 h at 37 °C
Description: as §1, with “a carrier protein-Enzyme” for “an Enzyme”, “carrier protein-ED-tagged” for “ED-tagged”
In this example, the cell line is a NFκB (Nuclear factor NF-kappa-B p100 subunit) pathway reporter cell line. The cells are U2OS cells that include a nucleic acid encoding a reporter fragment and β-galactosidase donor fragment (ED) having the amino acid sequence […] (SEQ ID NO:30) operably coupled to a promoter region comprising a NFκB response element. To produce the RANK-NFκB reporter assay RANK (Receptor activator of nuclear factor κ B receptor) is co-expressed in the above-developed U2OS NFκB Pathway Reporter cells.
as §2, with “sRANKL),” for “CD40L),”

RANK = test: Comparison of U2OS NF-κB and U2OS RANK-NF-κB reporter cell lines (Example 16); assay type: cell-based; details: FIG. 24b versus FIG. 24a
Description: as §1, with “Two reporter” for “A reporter”, “cell lines were” for “cell line was”, “express a carrier protein-Enzyme” for “express an Enzyme”, “the carrier protein-ED-tagged” for “the ED-tagged”
In this example, a first cell line is a U2OS-NF-κB pathway reporter cell line and the second cell line is U2OS RANK-NF-κB cell line. The cells are U2OS for both the cell lines as prepared in this example 16. The U2OS-NF-κB cell line includes a nucleic acid encoding a reporter fragment and β-galactosidase donor fragment (ED) having the amino acid sequence […] (SEQ ID NO:30) operably coupled to a promoter region comprising a NFκB response element. The U2OS RANK-NF-κB cell line includes a nucleic acid encoding a reporter fragment and β-galactosidase donor fragment (ED) having the amino acid sequence […] (SEQ ID NO:30) operably coupled to a promoter region comprising a NFκB response element followed by co-expression of RANK-CD27 (receptor) in the above-developed U2OS NF-κB pathway reporter cell line.
Assay results for U2OS NF-κB cell line with CD40L ligand is shown in FIG. 24a and assay results for U2OS RANK NF-κB cell line with sRANK ligand is shown in FIG. 24b.

Row | Molecule | response of endogenous CD40 receptor to ligand (CD40 receptor [1]) | sensitivity of EFC-based assay relative to luciferase-based assay (CD40 receptor [2]) | EC50 for control agonist stimulation [3] [ng/mL] | signal:background ratio at agonist EMAX [3] | EC50 for control agonist stimulation (CD40 receptor [4]) [ng/mL] | signal:background ratio (CD40 receptor [4]) | EC50 for control agonist stimulation, U2OS RANK-NFκB pathway reporter cell line [5] [ng/mL] | signal:background ratio, U2OS RANK-NFκB pathway reporter cell line [5] | EC50 for control agonist stimulation [6] [ng/mL] | signal:background ratio [6] | EC50 compared with U2OS NF-κB cell line with CD40L (RANK) | signal:background ratio compared with U2OS NF-κB cell line with CD40L (RANK)
1 | CD40L: CD40 ligand, control agonist acting through the CD40 receptor | responded robustly | over 35 times | 225.4 | 26.3 | 88.6 | 102.8 |  |  |  |  |  | 
2 | B1 |  |  |  |  |  |  | 4.03 | 24 | 4.034 | 24.0 | lower EC50 | larger signal:background ratio
